Tests used:
[1] = substrate: C[C@H](O)[C@@H](O)[C@@H](O)[C@H](O)C(=O)O; experiment: coupled enzyme dehydration assay; assay type: biochemical, Homo sapiens
purified protein [2] = substrate: O=C(O)[C@@H](O)[C@H](O)[C@H](O)CO; experiment: purified protein
purified protein [3] = substrate: O=C(O)[C@H](O)[C@H](O)[C@H](O)CO; experiment: purified protein
purified protein [4] = substrate: O=C(O)[C@H](O)C(O)[C@@H](O)C(=O)O; experiment: purified protein
purified protein [5] = substrate: O=C(O)[C@@H](O)[C@H](O)[C@H](O)[C@@H](O)CO; experiment: purified protein

B1: rTSγ (HsrTSγ) (Homo sapiens) (protein)
chain: MVRGRISRLSVRDVRFPTSLGGHGADAMHTDPDYSAAYVVIETDAEDGIKGCGITFTLGKGTEVVVCAVNALAHHVLNKDLKDIVGDFRGFYRQLTSDGQLRWIGPEKGVVHLATAAVLNAVWDLWAKQEGKPVWKLLVDMDPRMLVSCIDFRYITDVLTEEDALEILQKGQIGKKEREKQMLAQGYPAYTTSCAWLGYSDDTLKQLCAQALKDGWTRFKVKVGADLQDDMRRCQIIRDMIGPEKTLMMDANQRWDVPEAVEWMSKLAKFKPLWIEEPTSPDDILGHATISKALVPLGIGIATGEQCHNRVIFKQLLQAKALQFLQIDSCRLGSVNENLSVLLMAKKFEIPVCPHAGGVGLCELVQHLIIFDYISVSASLENRVCEYVDHLHEHFKYPVMIQRASYMPPKDPGYSTEMKEESVKKHQYPDGEVWKKLLPA
- kcat [1]: 0.5 ± 0.006 s⁻¹
- kcat/Km [1]: 2500 M⁻¹ s⁻¹
- kcat (purified protein [2]): 0.04 ± 0.002 s⁻¹
- kcat/Km (purified protein [2]): 20 M⁻¹ s⁻¹
- kcat (purified protein [3]): 0.002 ± 0.001 s⁻¹
- kcat/Km (purified protein [3]): 5 M⁻¹ s⁻¹
- kcat (purified protein [4]): 0.3 ± 0.004 s⁻¹
- kcat/Km (purified protein [4]): 75 M⁻¹ s⁻¹
- kcat (purified protein [5]): 0.3 ± 0.01 s⁻¹
- kcat/Km (purified protein [5]): 100 M⁻¹ s⁻¹

— publication PMC4010280
